Experimental data published in PMC406421 (Nuclear Receptor, 2004).

B1: VP16-AD/CAR-LBD fusion protein of reference CAR(SV1) (domain or fragment, human, UniProt Q14994-2 105-348, looked up)
chain: QLSKEQEELIRTLLGAHTRHMGTMFEQFVQFRPPAHLFIHHQPLPTLAPVLPLVTHFADINTFMVLQVIKFTKDLPVFRSLPIEDQISLLKGAAVEICHIVLNTTFCLQTQNFLCGPLRYTIEDGARVGFQVEFLELLFHFHGTLRKLQLQEPEYVLLAAMALFSPDRPGVTQRDEIDQLQEEMALTLQSYIKGQQRRPRDRFLYAKLLGLLAELRSINEAYGYQIQHIQGLSAMMPLLQEICS

Experiments:
[1] = target: GAL4-DBD/DRIP205 receptor interaction domain fusion protein (human) (UniProt Q15648); experiment: two-hybrid
GAL4-DBD/DRIP205 receptor interaction domain fusion protein (human), sequence (Q15648 527-774): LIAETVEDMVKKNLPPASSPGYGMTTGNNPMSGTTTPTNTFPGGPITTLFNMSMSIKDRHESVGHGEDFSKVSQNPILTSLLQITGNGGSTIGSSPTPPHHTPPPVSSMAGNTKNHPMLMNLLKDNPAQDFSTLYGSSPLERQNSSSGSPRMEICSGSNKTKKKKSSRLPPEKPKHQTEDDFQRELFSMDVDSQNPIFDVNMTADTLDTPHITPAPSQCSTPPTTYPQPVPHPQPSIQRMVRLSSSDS

[2] = target: GAL4-DBD/DRIP205 receptor interaction domain fusion protein (human, UniProt Q15648 527-774); experiment: two-hybrid
GAL4-DBD/DRIP205 receptor interaction domain fusion protein, sequence (Q15648 527-774): as above

Molecule | fold induction of the interaction by CITCO over Me2SO (two-hybrid reporter) [1] | fold induction of the interaction by CITCO over Me2SO (two-hybrid reporter) [2]
VP16-AD/CAR-LBD fusion protein of CAR(SV2) (from UniProt Q14994-2 105-348) (domain or fragment) | 100 fold | 
B1 |  | 2 fold
